# In US20090068103, “APTAMERS LABELED WITH 68GA” (published 2009):
# B1: TTA3 (ssRNA)
# RNA: GGGAGGACGCGUCGCCGUAAUGGAUGUUUUGCUCCCUG
# modifications: 5'-NH2-C6; mGmGmG mAmGG mAfCmG-(CH2CH2O)6-fCGfU fCGfC fCGfU mAmAfU mGmGmA fUmGfU fUfUfU mGfCfU fCfCfC UG (m=2'-OMe, f=2'-F); 3'-3'-T cap
# B2: TTA6 (ssRNA)
# RNA: B1 RNA
# modifications: 5'-NH2-C6-O-SPO-O (PS linkage); mGmGmG mAmGG mAfCmG-(CH2CH2O)6-fCGfU fCGfC fCGfU mAmAfU mGmGmA fUmGfU fUfUfU mGfCfU fCfCfC fUmG (m=2'-OMe, f=2'-F); 3'-3'-T cap
# B3: TTA5 (ssRNA)
# RNA: TAGGGAGGACGCGUCGCCGUAAUGGAUGUUUUGCUCCCUG
# modifications: 5'-(aminomodifier C2 dT)-mA mGmGmG mAmGG mAfCmG-(CH2CH2O)6-fCGfU fCGfC fCGfU mAmAfU mGmGmA fUmGfU fUfUfU mGfCfU fCfCfC fUmG (m=2'-OMe, f=2'-F); 3'-3'-T cap
# B4: TTA4 (ssRNA)
# RNA: GGGAGGACGCGUCGCCGUAAUGGAUGUUUUGCUCCC
# modifications: mGmGmG mAmGG mAfCmG-(CH2CH2O)6-fCGfU fCGfC fCGfU mAmAfU mGmGmA fUmGfU fUfUfU mGfCfU fC(C6-NH2)CfC (m=2'-OMe, f=2'-F); 3'-3'-T cap
# B5: TTA7 (ssRNA)
# RNA: B4 RNA
# modifications: LGLGLG LALGmG mAfCrG-(CH2OCH2)6-fCGfU fCGfC fCGfU mAmAfU mGmGmA fUmGfU fUfUfU mGLCLU LCLCLC-(CH2)6NH2-3' (m=2'-OMe, f=2'-F, L prefix as printed, LNA inferred, r=ribo)
# B6: TTA8 (ssRNA)
# RNA: B4 RNA
# modifications: mGmGmG mAmGmG mAfCrG-(CH2OCH2)6-fCGfU fCGfC fCGfU mAmAfU mGmGmA fUmGfU fUfUfU mGmCmU mCmCmC-(CH2)6NH2-3' (m=2'-OMe, f=2'-F, r=ribo)
# Target: Tenascin-C (TN-C) (Homo sapiens, UniProt P24821 P24821:23-2201)
# Sequence (P24821 23-2201, one chain of several): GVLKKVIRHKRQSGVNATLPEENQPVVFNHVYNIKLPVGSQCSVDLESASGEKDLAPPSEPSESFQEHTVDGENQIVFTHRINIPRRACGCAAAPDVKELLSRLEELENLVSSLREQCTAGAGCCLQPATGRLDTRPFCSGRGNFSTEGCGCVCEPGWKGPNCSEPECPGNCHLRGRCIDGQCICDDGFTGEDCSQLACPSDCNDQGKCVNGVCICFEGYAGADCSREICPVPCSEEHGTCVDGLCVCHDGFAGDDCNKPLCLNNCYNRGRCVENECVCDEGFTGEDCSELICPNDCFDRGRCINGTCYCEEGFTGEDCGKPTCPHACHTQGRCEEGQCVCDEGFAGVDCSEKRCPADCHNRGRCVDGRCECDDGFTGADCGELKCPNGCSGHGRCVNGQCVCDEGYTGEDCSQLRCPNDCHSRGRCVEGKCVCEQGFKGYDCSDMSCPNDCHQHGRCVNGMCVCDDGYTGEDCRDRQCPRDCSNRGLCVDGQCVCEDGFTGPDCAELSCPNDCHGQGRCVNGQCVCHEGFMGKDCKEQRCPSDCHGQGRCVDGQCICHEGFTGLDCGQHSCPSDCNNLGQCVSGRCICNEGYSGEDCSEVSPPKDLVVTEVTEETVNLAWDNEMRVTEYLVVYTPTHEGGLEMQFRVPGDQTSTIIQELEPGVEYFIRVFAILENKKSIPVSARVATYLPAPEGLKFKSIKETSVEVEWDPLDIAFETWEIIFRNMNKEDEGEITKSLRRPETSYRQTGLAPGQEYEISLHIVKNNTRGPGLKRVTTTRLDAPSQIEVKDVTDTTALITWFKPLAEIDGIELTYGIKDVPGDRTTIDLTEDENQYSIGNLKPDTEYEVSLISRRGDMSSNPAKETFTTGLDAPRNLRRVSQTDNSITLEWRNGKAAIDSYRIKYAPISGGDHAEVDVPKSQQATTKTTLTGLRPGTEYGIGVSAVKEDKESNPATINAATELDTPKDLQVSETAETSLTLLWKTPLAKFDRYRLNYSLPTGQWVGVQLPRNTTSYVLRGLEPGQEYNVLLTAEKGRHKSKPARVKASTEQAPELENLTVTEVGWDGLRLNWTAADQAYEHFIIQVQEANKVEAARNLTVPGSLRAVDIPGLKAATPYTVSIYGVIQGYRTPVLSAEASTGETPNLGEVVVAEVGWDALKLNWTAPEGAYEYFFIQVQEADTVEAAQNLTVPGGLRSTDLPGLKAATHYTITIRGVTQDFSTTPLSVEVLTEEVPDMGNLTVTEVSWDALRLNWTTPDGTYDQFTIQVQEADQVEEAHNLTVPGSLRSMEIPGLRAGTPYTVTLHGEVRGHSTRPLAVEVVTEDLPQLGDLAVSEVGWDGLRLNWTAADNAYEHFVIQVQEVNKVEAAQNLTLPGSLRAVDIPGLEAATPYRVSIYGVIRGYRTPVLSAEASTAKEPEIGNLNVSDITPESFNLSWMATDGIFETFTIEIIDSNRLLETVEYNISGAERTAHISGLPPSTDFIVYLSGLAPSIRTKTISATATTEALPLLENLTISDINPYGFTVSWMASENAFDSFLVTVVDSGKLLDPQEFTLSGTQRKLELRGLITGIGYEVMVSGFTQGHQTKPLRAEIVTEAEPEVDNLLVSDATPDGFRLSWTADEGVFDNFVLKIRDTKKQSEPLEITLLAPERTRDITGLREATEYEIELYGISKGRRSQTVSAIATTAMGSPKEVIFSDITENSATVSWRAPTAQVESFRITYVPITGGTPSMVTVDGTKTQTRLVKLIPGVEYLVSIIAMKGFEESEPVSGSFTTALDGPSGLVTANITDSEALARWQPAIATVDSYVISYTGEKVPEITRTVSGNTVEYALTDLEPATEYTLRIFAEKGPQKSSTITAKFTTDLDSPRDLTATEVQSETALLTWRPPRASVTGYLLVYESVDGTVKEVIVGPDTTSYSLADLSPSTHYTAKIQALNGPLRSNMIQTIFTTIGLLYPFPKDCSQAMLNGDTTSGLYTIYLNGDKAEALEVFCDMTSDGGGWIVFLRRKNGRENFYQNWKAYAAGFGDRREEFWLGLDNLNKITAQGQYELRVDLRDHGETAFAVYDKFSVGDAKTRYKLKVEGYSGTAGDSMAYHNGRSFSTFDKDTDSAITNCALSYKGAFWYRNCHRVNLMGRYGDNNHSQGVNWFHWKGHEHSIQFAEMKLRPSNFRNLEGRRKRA
# Test: competition; filter competition vs 1 nM 99mTc-TTA1-MAG2, 2 nM TN-C; TBSMC pH 7.4, 1 mM CaCl2, 1 mM MgCl2, 37 C
# Settings: tags: none stated; chain copies: 6
# Protocol: A competition filter binding assay was carried out in order to determine binding constants (EC₅₀). Samples of 2 nM human TN-C were incubated with 1 nM ^99mTc-TTA1-MAG₂ in TBSMC buffer (20 mM Tris, pH 7.4; 137 mM NaCl; 1 mM CaCl₂; 1 mM MgCl₂) and the binding competed with varying concentrations of unlabeled aptamer (see pipetting scheme in FIG. 9.1). Incubation was carried out at 37° C. for 15 min. Subsequently, the solutions were pipetted on a Minifold Device equipped with a supported nitrocellulose membrane and Whatman filter paper and were washed with buffer using vacuum. Residual radioactivity on the filter due to tenascin-C bound labeled aptamer was quantified using a Phosphorimager. EC₅₀ values were calculated using GraphPadPrism 3.02 (San Diego, Calif., USA) plotting one-side competition non-linear regression curves.
row,Binder,EC50 [nM]
1,B1,19
2,B2,14
3,B3,39
4,B4,20
5,B5,2
6,B6,14
